Results from patent US20030235860A1, “Interactions between AR, ER, TR2, and TR4” (priority 1999, published 2003).

T1: TR4 (Homo sapiens, UniProt P49116)
T1 construct: full-length AR and TR4 in eukaryotic expression vectors (pSG5AR and pCMXTR4) were co-transfected; expressed in transfected cells; host or cells: H1299, HepG2
T1 sequence (P49116 1-615 isoform P49116-2 N175S/W419R/A428G/K503N/L504W/A613V): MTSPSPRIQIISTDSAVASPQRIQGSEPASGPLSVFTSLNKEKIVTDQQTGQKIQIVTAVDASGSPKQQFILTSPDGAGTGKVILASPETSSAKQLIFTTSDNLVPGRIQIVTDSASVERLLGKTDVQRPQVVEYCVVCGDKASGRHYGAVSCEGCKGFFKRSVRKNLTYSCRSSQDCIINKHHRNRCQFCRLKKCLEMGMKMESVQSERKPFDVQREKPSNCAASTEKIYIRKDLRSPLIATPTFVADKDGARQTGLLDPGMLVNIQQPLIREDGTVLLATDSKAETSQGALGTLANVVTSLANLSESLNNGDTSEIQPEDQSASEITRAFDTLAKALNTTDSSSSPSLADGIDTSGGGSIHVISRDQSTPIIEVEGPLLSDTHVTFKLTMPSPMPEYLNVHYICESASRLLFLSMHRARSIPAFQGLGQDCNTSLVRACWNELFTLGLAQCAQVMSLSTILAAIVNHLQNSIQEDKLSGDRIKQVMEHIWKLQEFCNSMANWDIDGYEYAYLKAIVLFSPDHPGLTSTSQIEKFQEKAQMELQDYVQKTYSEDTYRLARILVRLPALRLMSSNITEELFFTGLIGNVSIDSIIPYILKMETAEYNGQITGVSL


Legend:
TR4 = target: T1, TR4; assay: TR4-mediated transactivation reporter assay; type: cell-based
Protocol: Cells were routinely maintained in DMEM with 10% heat-inactivated fetal bovine serum. The cells were transfected using a modified calcium phosphate precipitation method, Mizokami, & Chang, J: Biol. Chem. 269,25655-25659 (1994), or SuperFect (Qiagen). To normalize the transfection efficiency, the (3-galactosidase expression ver and pRL-TK were co-transfected in CAT assay and in Dual-luciferase reporter assay system (Promega), respectively.
More specifically, 500 ng of reporter plasmids were co-transfected(DR4-CAT and CNTFR-15-LUC) with 200 ng of pCMX-TR4 and increasing amounts of pCMV-AR (200, 600, and 1,200 ng), pSG5GR (1,200 ng), or pSG5 PR (1,200 ng) using the SuperFect transfection kit (Qiagen) (PCMV AR Mowszowicz et al., (1993) Molecular Endocrinology 7:861:869). […] Similar results were obtained when the DR4-TK-CAT reporter was replaced with DR1-CNTFR-15-LUC, another TR4 response element (FIG. 3A). Young, et al., J: Biol. Chem. 272,3109-3116 (1997).
Another TR4 potential target gene, which is located in the hepatitis B virus (HBV) enhancer II region (−34 to −7) containing a classic DR1 motif. Breidbart, et al., Pediatric Res. 34,300-302 (1993), was investigated. The reporter plasmid CpFL(4)-LUC, which contains the HBV core promoter (Cp) sequence located between −34 and −7 (nucleotide coordinates 1751 and 1778 derived from the Genbank database) was shown above in FIG. 3B. The arrows indicate the DRI motif in HBV core promoter. HepG2 cells were co-transfected with 1.5 μg CpFL(4)-LUC reporter and 0.5 μg pCMX-TR4, with increasing amounts of pCMV-AR (0.5, 2.5, and 5 μg) by modified calcium phosphate precipitation method. The relative reporter gene activities were compared to the CAT activities (or luciferase activities) with vector alone. To normalize the transfection efficiency, the β-galactosidase expression vector and pRL-TK were co-transfected in the CAT assay and in the Dual-luciferase reporter assay system (Promega), respectively.

TR4-DR1 = TR4-DR1 (Homo sapiens, UniProt P49116); details: increasing amounts of in vitro translated AR (1, 2, 4 μl)
Protocol: EMSA was performed as described previously. […] Briefly, the reaction was performed by incubating the 32P-end labeled DR1 probe with in vitro translated TR4 (1 ml) with or without an increasing amount of AR (1, 2, 4 ml). The EMSA incubation buffer is 10 mM HEPES, pH 7.9, 2% (v/v) glycerol, 100 mM KCl, 1 mM EDTA, 5 mM MgCl, and 1 mM DTT. For the antibody supershifted analysis, 1 ml of monoclonal anti-TR4 antibody (#15) was added to the reaction. […] The radioactive gel was analyzed by autoradiography.
One μl of in vitro translated TR4 protein was incubated with increasing amounts of in vitro translated AR (1 μl, 2 μl, and 4 μl) in EMSA reaction buffer (10 mM HEPES pH 7.9, 2% (v/v) glycerol, 100 mM KCl, 1 mM EDTA, 5 mM MgCl2, and 1 mM DTT) for 15 min. 32P-end labeled DR1 was added into the protein mixture and incubated for 15 min before loading. For the antibody supershift assay, 1 μl of monoclonal anti-TR4 antibody was added to the reaction and applied to a 5% native polyacrylamide gel. The radioactive gel was analyzed by autoradiography.

cyclin D1 = assay: Western blot of cyclin D1 in MCF-7-TR4 cells; type: cell-based; details: 10 nM E2, Dox
Protocol: MCF-7-TR4 or MCF-7-pBIG cells were cultured in DMEM containing 10% charcoal dextran-treated FBS for 3 days and then 1×10^6 cells were seeded on 100-mm dishes. […] The lysate protein amount was quantitated by Bradford assay (Bio-Rad, Hercules, Calif.) with bovine serum albumin as a reference standard. One hundred μg protein was loaded and after electrophoresis on 10% SDS-PAGE was transferred onto Immobulin (Milipore, Bedford, Mass.). The membrane was blotted with anti-cyclin D1 rabbit polyclonal Ab (H-295) (Santa Cruz). Alkaline phosphatase conjugated secondary Ab was used.

Molecule | CAT activity induced by pCMXTR4 (DR4-TK-CAT; similar with DR1-CNTFR-I5-LUC) (TR4; H1299 cells, absence or presence of DHT) | TR4-induced CpFL(4)-LUC activity (HBV core promoter) (TR4; HepG2 cells, increasing pCMV-AR) | Activity TR4 (effect of regulator on transcription activity) (TR4; Table 5) | Specific TR4-DR1 band (TR4-DR1) | Cyclin D1 expression (cyclin D1)
AR: androgen receptor, SEQ ID NO:31 | repressed significantly | significantly decreased | Down | decreased | 
TR4: human testicular orphan nuclear receptor 4, SEQ ID NO:16; expressed from plasmid or in vitro translated (protein) MTSPSPRIQIISTDSAVASPQRIQGSEPASGPLSVFTSLNKEKIVTDQQTGQKIQIVTAVDASGSPKQQFILTSPDGAGTGKVILASPETSSAKQLIFTTSDNLVPGRIQIVTDSASVERLLGKTDVQRPQVVEYCVVCGDKASGRHYGAVSCEGCKGFFKRSVRKNLTYSCRSSQDCIINKHHRNRCQFCRLKKCLEMGMKMESVQSERKPFDVQREKPSNCAASTEKIYIRKDLRSPLIATPTFVADKDGARQTGLLDPGMLVNIQQPLIREDGTVLLATDSKAETSQGALGTLANVVTSLANLSESLNNGDTSEIQPEDQSASEITRAFDTLAKALNTTDSSSSPSLADGIDTSGGGSIHVISRDQSTPIIEVEGPLLSDTHVTFKLTMPSPMPEYLNVHYICESASRLLFLSMHRARSIPAFQGLGQDCNTSLVRACWNELFTLGLAQCAQVMSLSTILAAIVNHLQNSIQEDKLSGDRIKQVMEHIWKLQEFCNSMANWDIDGYEYAYLKAIVLFSPDHPGLTSTSQIEKFQEKAQMELQDYVQKTYSEDTYRLARILVRLPALRLMSSNITEELFFTGLIGNVSIDSIIPYILKMETAEYNGQITGVSL |  |  |  |  | suppress
